Assay [1] has as its target CD44 (HCELL), native glycoprotein from human HSPCs (KG1a, CD34^pos fraction) (human) (UniProt P16070). Description: SPR; CD44 captured from KG1a lysate on Hermes-3-mAb, E-Ig injected, 150 mM NaCl; apparent rate constant; 1st experiment.
Assay [2] concerns the target T1, CD34, native glycoprotein from human HSPCs (KG1a, CD34^pos-BM, CD34^pos-UCB, CD34^pos-AML) (human, UniProt P28906 32-385, native glycosylation (about 120-130 kDa form); sialylated O-glycans and tyrosine sulfation are shown to matter for selectin binding).
T1 construct: mature; also called E-selL CD34
T1 sequence (looked up): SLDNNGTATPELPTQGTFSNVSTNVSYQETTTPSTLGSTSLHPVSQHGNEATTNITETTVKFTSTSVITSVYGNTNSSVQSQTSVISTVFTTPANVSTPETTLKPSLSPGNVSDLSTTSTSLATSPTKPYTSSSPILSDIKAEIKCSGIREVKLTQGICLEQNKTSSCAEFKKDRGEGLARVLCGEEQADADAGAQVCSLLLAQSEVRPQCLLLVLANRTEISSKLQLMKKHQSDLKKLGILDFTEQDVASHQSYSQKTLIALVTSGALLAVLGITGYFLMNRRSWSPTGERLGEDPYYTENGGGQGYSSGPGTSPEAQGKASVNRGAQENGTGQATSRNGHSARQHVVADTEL
Nature of the assay: SPR; CD34 captured from KG1a lysate on 563-mAb, E-Ig injected, 150 mM NaCl; apparent rate constant; mean ± SEM.

Assay [3] deals with T1, CD34, native glycoprotein from human …. Description: SPR; CD34 captured from CD34^pos-BM lysate on 563 mAb, E-Ig injected, 50 mM NaCl; steady-state model.
Assay [4] deals with CD44 (HCELL), native glycoprotein from human HSPCs (KG1a, CD34^pos fraction) (human) (UniProt P16070). Nature of the assay: SPR; CD44 captured from KG1a lysate on Hermes-3-mAb, E-Ig injected (3.9-2000 nM), 150 mM NaCl; steady-state model; mean ± SEM.
CD44 (HCELL), native glycoprotein from human HSPCs (KG1a, CD34^pos fraction) (human), sequence (P16070 21-742): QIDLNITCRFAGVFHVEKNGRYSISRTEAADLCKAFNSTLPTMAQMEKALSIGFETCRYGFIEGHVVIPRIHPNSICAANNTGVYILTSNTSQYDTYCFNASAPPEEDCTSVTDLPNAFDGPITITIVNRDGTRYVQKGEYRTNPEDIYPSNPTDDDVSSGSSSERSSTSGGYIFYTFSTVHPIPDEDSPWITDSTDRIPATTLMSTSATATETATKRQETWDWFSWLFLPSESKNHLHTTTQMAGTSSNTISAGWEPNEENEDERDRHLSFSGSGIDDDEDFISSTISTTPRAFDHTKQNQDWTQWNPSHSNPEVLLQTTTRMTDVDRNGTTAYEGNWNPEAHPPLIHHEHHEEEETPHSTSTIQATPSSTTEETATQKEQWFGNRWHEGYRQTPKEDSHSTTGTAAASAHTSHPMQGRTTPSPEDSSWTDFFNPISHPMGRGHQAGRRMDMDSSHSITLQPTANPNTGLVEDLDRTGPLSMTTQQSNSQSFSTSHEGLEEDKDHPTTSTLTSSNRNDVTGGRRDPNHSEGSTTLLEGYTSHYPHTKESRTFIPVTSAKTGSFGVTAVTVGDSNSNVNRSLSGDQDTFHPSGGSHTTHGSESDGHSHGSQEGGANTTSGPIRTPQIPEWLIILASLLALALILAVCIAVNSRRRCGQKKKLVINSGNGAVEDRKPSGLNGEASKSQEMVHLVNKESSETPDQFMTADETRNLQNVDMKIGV
Assay [5] addresses T1, CD34, native glycoprotein from human …. Nature of the assay: SPR, apparent rate constant: includes loss of CD34 or CD34⋅E-Ig from 4H11-mAb and of E-Ig from CD34⋅4H11-mAb; KG1a lysate.
Assay [6] concerns the target T2, PSGL-1, native glycoprotein from human HSPCs (KG1a, CD34^pos-BM) (human, UniProt Q14242 42-412, native glycosylation and tyrosine sulfation).
T2 construct: mature; also called P-selectin glycoprotein ligand-1
T2 sequence (looked up): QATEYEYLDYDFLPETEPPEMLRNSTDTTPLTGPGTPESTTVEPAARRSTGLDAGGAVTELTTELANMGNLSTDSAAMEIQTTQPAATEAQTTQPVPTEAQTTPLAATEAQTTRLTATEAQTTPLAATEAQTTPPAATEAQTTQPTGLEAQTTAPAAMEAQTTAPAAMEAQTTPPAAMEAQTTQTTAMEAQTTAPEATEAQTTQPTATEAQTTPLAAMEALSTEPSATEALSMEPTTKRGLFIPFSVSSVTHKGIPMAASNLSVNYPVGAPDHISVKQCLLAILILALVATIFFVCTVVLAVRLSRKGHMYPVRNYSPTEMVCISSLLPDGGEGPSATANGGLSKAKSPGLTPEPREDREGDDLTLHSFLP
Nature of the assay: SPR; PSGL-1 captured from KG1a lysate on KPL-1-mAb, E-Ig injected, 150 mM NaCl; apparent rate constant; 3rd experiment.

For assay [7], the target named is T1, CD34, native glycoprotein from human …. Nature of the assay: SPR; CD34 captured from KG1a lysate on 563-mAb, E-Ig injected (3.9-2000 nM), 150 mM NaCl; steady-state model; mean ± SEM.
Assay [8] has as its target T2, PSGL-1, native glycoprotein from human …. Description: SPR; PSGL-1 captured from KG1a lysate on KPL-1-mAb, E-Ig injected (3.9-2000 nM), 150 mM NaCl; steady-state model; mean ± SEM.
Assay [9] concerns the target T3, CD43, native glycoprotein from KG1a cells (human, UniProt P16150 20-400, native glycosylation).
T3 construct: mature
T3 sequence (looked up): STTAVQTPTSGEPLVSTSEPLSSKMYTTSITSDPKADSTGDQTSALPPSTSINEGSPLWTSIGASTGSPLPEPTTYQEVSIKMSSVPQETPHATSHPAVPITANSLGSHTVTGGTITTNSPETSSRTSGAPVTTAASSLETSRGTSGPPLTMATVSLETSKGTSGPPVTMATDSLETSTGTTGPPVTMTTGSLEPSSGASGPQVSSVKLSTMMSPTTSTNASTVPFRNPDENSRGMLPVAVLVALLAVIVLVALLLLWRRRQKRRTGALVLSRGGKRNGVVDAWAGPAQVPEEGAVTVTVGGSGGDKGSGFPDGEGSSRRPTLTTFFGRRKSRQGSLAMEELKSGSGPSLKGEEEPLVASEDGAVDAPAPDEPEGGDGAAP
Description: SPR; CD43 captured from KG1a lysate on polyclonal CD43 Ab, E-Ig injected (3.9-2000 nM), 150 mM NaCl; steady-state model; mean ± SEM.

The target of assay [10] is CD44 (HCELL), native glycoprotein from human HSPCs (KG1a, CD34^pos fraction) (human) (UniProt P16070). Nature of the assay: SPR, decay after injection of E-Ig (177 nM, 1 mM CaCl2) over CD44 captured on Hermes-3; apparent constant that includes loss of CD44 from the mAb, s^-1 as in paragraph 58.

B1: recombinant E-selectin human immunoglobulin chimeric protein (Fc fusion)
chain: WSYNTSTEAMTYDEASAYCQQRYTHLVAIQNKEEIEYLNSILSYSPSYYWIGIRKVNNVWVWVGTQKPLTEEAKNWAPGEPNNRQKDEDCVEIYIKREKDVGMWNDERCSKKKLALCYTAACTNTSCSGHGECVETINNYTCKCDPGFSGLKCEQIVNCTALESPEHGSLVCSHPLGNFSYNSSCSISCDRGYLPSSMETMQCMSSGEWSAPIPACNVVECDAVTNPANGFVECFQNPGSFPWNTTCTFDCEEGFELMGAQSLQCTSSGNWDNEKPTCKAVTCRAVRQPQNGSVRCSHSPAGEFTFKSSCNFTCEEGFMLQGPAQVECTTQGQWTQQIPVCEAFQCTALSNPERGYMNCLPSASGSFRYGSSCEFSCEQGFVLKGSKRLQCGPTGEWDNEKPTCEAVRCDAVHQPPKGLVRCAHSPIGEFTYKSSCAFSCEEGFELHGSTQLECTSQGQWTEEVPSCQVVKCSSLAVPGKINMSCSGEPVFGTVCKFACPEGWTLNGSAARTCGATGHWSGLLPTCEAPTESNIP
For B1, the koff turned out to be 0.00011 s⁻¹ in [1], 0.00026 s⁻¹ in assay [2], 0.00033 s⁻¹ in assay [5] and 0.000262 s⁻¹ in [6]. The kon in [1] stood at 641 M⁻¹ s⁻¹; in assay [2], 1230 M⁻¹ s⁻¹; in assay [6], 1140 M⁻¹ s⁻¹. In addition, the Kd turned out to be 261 nM in assay [3]; 233 nM in assay [4]; 237 nM in assay [7]; 259 nM in [8]; 442 nM in assay [9]. Moreover, the koff-apparent in assay [10] is 0.00019 s⁻¹.

The values above are taken from patent publication US20200199533A1 (KING ABDULLAH UNIVERSITY OF SCIENCE AND TECHNOLOGY, published 2020).
